Where a chain is given by its changes, count along the chain named.
B1: ADI-42227 (antibody, V domains shown)
VH: EVQLLESGAEVKEPGSSVKVSCKPSGGTFSSYVISWVRQAPGQGLEWMGGIIPIFGTPNYAQKFQGRVTITADDSTSTAHMELSSLTSDDTAVYYCARETYYYGSGSVPVHDWGQGTLVTVSS
VL: EIVMTQSPSSLSASVGDRVTITCRASQGIRNDLGWYQQKPGKAPKRLIYAASSLQSGVPSRFSGSGSGREFTLTISSLQPEDFATYYCLQHNTYPWTFGQGTKVEIK
notes: full-length IgG
B2: ADI-46741 (antibody, V domains shown)
VH: EVQLVESGPGLVKPSETLSLTCTVSGGSISSYYWSWIRQPPGKGLEWIGYIYYSGSTNYNPSLKSRVTISVDTSKNQFSLKLSSVTAADTAVYYCARETCSGGSCYYRVGSAFDIWGQGTTVTVSS
VL: SYELIQLPSASVAPGKTARITCGGNNIGSKSVHWYQQKPGQAPVLVVYDDSDRPSGIPERFSGSNSGNTATLTISRVEAGDEADYYCQVWDSSSDHEVFGGGTKLTVL
notes: full-length IgG; also called Antibody Number 115
B3: ADI-50203 (antibody, V domains shown)
VH: EVQLVESGGGVVQPGRSLRLSCVPSGFTFSSYAMHWVRQAPGKGLEWVAMMSYDGGDKNYADSVKGRFTISRDNSKNTLYLQMRSLRAEDTAIYYCARAYDSRGYYYIEHWGQGTLVTVSS
VL: GIQLTQSPSTLSASVGDRVTITCRASQSVSDWLAWYQQKPGRAPNLLIYRASSLQSGVPSRFSGSGSGTEFTLTINSLQPDDFATYYCQQYKTYWTFGQGTKVEIK
notes: full-length IgG; also called Antibody Number 103
B4: ADI-50534 (antibody, V domains shown)
VH: EVQLQESGPGLVKPSETLSLTCTVSGGSISSSSYYWGWIRQPPGKGLEWIGSIYYSGSTYYNPSLKSRVTISVDTSKNQFSLKLSSVTAADTAVYYCARHSSGSYYLAGYYFDYWGQGTLVTVSS
VL: NFMLTQPHSVSESPGKTVTISCTRSSGSIASNYVQWYQQRPGSAPTTVIYEDNQRPSGVPDRFSGSIDSSSNSASLTISGLKTEDEADYYCQSYDSSNWVFGGGTKLTVL
notes: full-length IgG
B5: ADI-42172 (antibody, V domains shown)
VH: QVQLVESGGGVVQPGRSLRLSCAASGFTFSSYGMHWVRQAPGKGLEWVAVMSYDGSNKYYADSLKGRFTISRDNSKNTLYLQMNSLRAEDTAVYFCAKAYDSSAYYYLDYWGQGTLVTVSS
VL: EIVLTQSPSTLSASVGDRVTITCRASQSISDWLAWYQQKPGKAPNLLIYRASSLESGVPSRFSGSGSGTEFTLTISSLQPDDFATYYCQQYNRYPYTFGQGTKVEIK
notes: full-length IgG; also called Antibody Number 117
B6: ADI-42178 (antibody, V domains shown)
VH: B5 VH with Q1E, V12I, T28N, M51I, L64V, Y94H, F95Y, S103R, A104G
VL: B5 VL with E1D, V3Q, Y36F, N45K, S53G, S56T, P95S
notes: full-length IgG
B7: ADI-42181 (antibody, V domains shown)
VH: EVQLVESGGGLVQPGGSLRLSCAASGFTFSNYWMNWVRQAPGKGLEWVANIKQDGSEKYYVDSVKGRFTISRDNAKNSLYLQMNSLRAEDTAVYYCARKLSYSSGWYYFDYWGQGTLVTVSS
VL: DIVMTQTPATLSVSPGERATLSCRASQSVSSNVAWYQQKPGQAPRLLIHGASTRATGIPARFSGSGSGTEFTLTISSLQSEDFAVYYCQQYNNWPPLTFGGGTKLEIK
notes: full-length IgG
B8: ADI-42200 (antibody, V domains shown)
VH: EVQLVESGGGVVQPGRSLRLSCAASGLTFSTYTLHWVRQAPGKGLEWVAVISSDGGNKYYADSVKGRFTISRDSSKNTLYLQMNSLRTEDTAVYYCAGGSPDYWGQGALVTVSS
VL: EIVMTQSPATLSLSPGERGTLSCRTSQSVSSFLAWYQQKPGQAPRLLMYDASNRATGIPARFSGSGSGTDFTLTISSLEPEDFAVYYCQQRSNWPYTFGQGTKVDIK
notes: full-length IgG; also called Antibody Number 102
B9: ADI-49139 (antibody, V domains shown)
VH: EVQLVETGSGLVRPSGTLSLTCAVSGDSISSNNWWSWVRQPPGKGLEWIGEIYHSGSTSYNPSLKSRVTISIDKSNNHFSLKLTSVTAADTAVYYCAKDMWAGTTTNWFGPWGQGTLVTVSS
VL: QSVLTQPPSVSAAPGQKVTISCSGSSSNIGYSHVSWYQQLPGTAPKVLIYDNDKRPSGIPDRFSGSKSGTSATLGITGLQTGDEADYYCGTWDTSLGVVFGGGTKLTVL
notes: full-length IgG; also called Antibody Number 11
B10: ADI-42141 (antibody, V domains shown)
VH: QVQLVQSGGGLVQPGGSLRLSCAASGFTFSDHYMDWVRQAPGKGLEWVGRTRNKANSYTTKYAASVKGRFTISRDDSKNSLYLQMNSLKTEDTAVYYCARVEGGAWGAFDIWGQGTTVTVSS
VL: SYVLTQPPSVSVSPGQTARITCSGDALPKQYGYWYQQKPGQAPVLVIYKDSERPSGIPERFSGSSSGTTVTLTISGVQAEDEADYYCQSADRSGTVVFGGGTKLTVL
notes: full-length IgG; also called Antibody Number 111
B11: ADI-50220 (antibody, V domains shown)
VH: EVQLVESGGGVVQPGRSLRLSCAASGFIFSSNSMHWVRQAPGKGLKWVAIISNDGRNKFYADAVKGRFTVSRDNSKNTLYLQMNSLRPEDTAVYYCARGYDSSGYWGFGDNWGQGTLVTVSS
VL: DIQVTQSPSTLSASVGDRVSITCRASQTISSWLAWYQQKPGKAPKLLMYKASNLQSGVPSRFTGSGSGTEFTLTISSLQPDDFATYYCQQYYSYPYTFGPGTKVDIK
notes: full-length IgG; also called Antibody Number 110
B12: ADI-49039 (antibody, V domains shown)
VH: QVQLQESGPGLVKPSETLSLTCAVSGYSISSGFYWGWIRQPPGKGLEWIGSMYQSGITYYNPSLKSRVTISVDTSKSQFSLKLTSVTAADTAMYYCARNAPENYYGSGRESFDIWGQGTMVTVSS
VL: QSVLTQPPSVSAAPGQKVTISCSGSSSNIGNNYVSWYQQLPGAAPKLLIYDNKKRPSGIPDRFSGSASGTSATMGITGLQTGDEADYYCGTWDSSLSAWVFGGGTKVTVL
notes: full-length IgG; also called Antibody Number 1
B13: ADI-42229 (antibody, V domains shown)
VH: B12 VH with Q54H, S77N, M120T
VL: B12 VL with L4V, L40F, G42R, A43T, M74L
notes: full-length IgG; also called Antibody Number 3
B14: ADI-42216 (antibody, V domains shown)
VH: QVTLKESGPVLVKPTETLTLTCTVSGFSLSNTKMGVTWIRQPPGKALEWLAHIFSNDEKSCNTSLKSRLTISKDTSKSQVVLTMTNMDPVDTATYYCARLWFTEYPGAFDIWGQGTMVTVSS
VL: QAVVTQPPSASGSPGQSVTISCTGTSSDVGGYNYVSWYQQHPGKAPKLMVYEVTKRPSGVPDRFSGSKSGNAASLTVSGLQAEDEAEYYCSSYAGSNALVFSGGTKLTVL
notes: full-length IgG; also called Antibody Number 112
B15: ADI-45074 (antibody, V domains shown)
VH: QVQLQQWGAGLLKPSETLSLTCAVYGGSFSGYYWSWIRQPPGKGLEWIGEINHRGSTDYNPSLKSRVTMSVDTSKNQFSLRLSSVTAADTALYYCARGRLAWGLRGQKSPNFFAYWGQGATVTVSS
VL: DIQMTQSPDSLAVSLGERATINCKSSQSVFYSSNSQNYLAWYQQKPGQPPKLLIYWASTRESGVPDRFSGSGSATDFSLTISSLQAEDVAVYYCQQFHSPPWTFGQGTKLEIK
notes: full-length IgG
B16: ADI-48462 (antibody, V domains shown)
VH: QVQLVQSGGGVVQPGRSLRLSCAASGFTFSSYGMHWVRQAPGKGLEWVAVIWYDGSNKYYADSVKGRFTISRDNSKNTLYLQMNSLRAEDTAVYYCARDYYGSGDGYFDYWGQGTTVTVSS
VL: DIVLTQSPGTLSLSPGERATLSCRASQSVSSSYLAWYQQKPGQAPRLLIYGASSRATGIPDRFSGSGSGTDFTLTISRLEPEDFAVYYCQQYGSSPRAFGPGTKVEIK
notes: full-length IgG; also called Antibody Number 100
B17: ADI-45127 (antibody, V domains shown)
VH: EVQLVESGPVLVKPTETLRLTCTVSGFSLSNTKLGVSWIRQPPGKALEWLAHIFSNAEKSSSKSLKSRLSISQDTSKSLVVLTMTNMDPVDTATYFCARIPVEYGTPRGSFDTWGQGTTVTVSS
VL: QSVLTQPPSASGSPGQSVTISCAGTRSDVGGYNFVSWYQQHPGKAPKLLIYEVNKRPSGVPDRFSGSKSANTASLTVSGLQAEDEAEYFCSSYGGNNDLVFGGGTKVTVL
notes: full-length IgG; also called Antibody Number 101
B18: ADI-45126 (antibody, V domains shown)
VH: EVQLVESGGGLVQPGGSLRLSCAASGFTFSDHYMDWVRQAPGKGLEWVGRSTNKPNSYTTTYAASVRGRFTISRDESKNSLYLQMNSLKSDDTAVYYCVTTTVILFDYWGQGTLVTVSS
VL: SYELTQPPSVSVSPGQTARITCSGDALPKKYVYWFQQKSGQAPVLVIYEDRRGPSGIPERFSGSTSGTMATLTIRGAQVEDEADYFCYSTDSSGLLGVFGGGTKLTVL
notes: full-length IgG; also called Antibody Number 106
B19: ADI-42149 (antibody, V domains shown)
VH: QVQLVQSGAEVRKPGASVKVSCKASGYTFTSYGISWVRQAPGQGLEWMGWISTYNGNTNYAQKLQGRVTMTTDTSTSTAYMELRSLRSDDTAVYYCAREIDSNYVFDYWGQGTLVTVSS
VL: QSVLTQPASVSGSPGQSITISCTGTSSDVGGYNYVSWYQQHPGKAPKLMIYEVSNRPSGVSNRFSGSKSGNTASLTISGLQAEDEADYYCSSYTSSGTNIFGTGTKLTVL
notes: full-length IgG
B20: ADI-42195 (antibody, V domains shown)
VH: EVQLLESGGGMVQPGRSLRLSCAASGFTFDDYDMHWVRQGPGKGLEWVSGISWNSGGRGYADSVKGRFTISRDNAKNSLYLQMNSLRVEDTALYYCVKDYCSGGRCYSFDYWGQGTLVTVSS
VL: DIQMTQSPSSLSASVGDRVTITCQASQDISNYLNWYQQKPGKAPKLLIYDVSKLKTGVPPRFSGSGSGTDFTFTISSLQPEDIATYYCQQWGTFGQGTKVDIK
notes: full-length IgG; also called Antibody Number 116
B21: ADI-49140 (antibody, V domains shown)
VH: EVQLVESGGGLVQPGGSLRLSCAASGFTFSDHYMDWVRQAPGRGLEWVGRSRNKVNSYTTDYAASVKGRFTISRDDSKNSLFLRMNSLKTEDTAVYYCARLTDSGYDDWGLGTLVTVSS
VL: QPELTQPPSVSVSPGQTARITCSGDALSKQYAYWYQQKPGQAPVVVIYKDSERPSGIPERFSGSRSGTTVTLTISGVQAEDEADYYCHSPDSHVVFGGGTKLTVL
notes: full-length IgG
B22: ADI-49041 (antibody, V domains shown)
VH: EVQLVESGGGLVKPGGSLRLSCAASGFTFSHAWMTWVRQAPGKGLEWVGRIKSETDGGTANYAAPVKGRFTISRDDSKNTVYLQMVSLKTEDTAVYYCATAGIFGVVIMKGFDHWGQGTTVTVSS
VL: DIVMTQSPSTLSASVGDRVVITCRASQSISNWLAWYQQKSGKAPKLLIYKASRLESGVPSTFSGSGSGTEFTLTISSLQADDFASYYCQQYNDYPWTFGQGTKVEIK
notes: full-length IgG
B23: ADI-42225 (antibody, V domains shown)
VH: QVQLQESGPGLVKPSGTLSLTCAVSGGSITSSNWWSWVRQPPGKGLEWIGDIYHSGSTSYNPSLKSRVTISVDKSKNHFSLKLTSVTAADTAVYYCARIAAGYSTSWYYFDYWGQGTLVTVSS
VL: QSALTQPPSVSAAPGQKVTISCSGSSSNIGNSYVSWYQQVPGTAPKLLIYDNNKRPSGIPDRFSGSKSGTSATLGITGLQAGDEADYYCGTWDTSLSAGRVFGRGTKLTVL
notes: full-length IgG; also called Antibody Number 10

Target: T1, recombinant YFV E protein (soluble E, sE; YFV Asibi strain) (Yellow fever virus, Asibi strain, UniProt Q6DV88 286-678)
T1 construct: also called YFV E antigen; YFV E monomer
T1 sequence (Q6DV88 286-678): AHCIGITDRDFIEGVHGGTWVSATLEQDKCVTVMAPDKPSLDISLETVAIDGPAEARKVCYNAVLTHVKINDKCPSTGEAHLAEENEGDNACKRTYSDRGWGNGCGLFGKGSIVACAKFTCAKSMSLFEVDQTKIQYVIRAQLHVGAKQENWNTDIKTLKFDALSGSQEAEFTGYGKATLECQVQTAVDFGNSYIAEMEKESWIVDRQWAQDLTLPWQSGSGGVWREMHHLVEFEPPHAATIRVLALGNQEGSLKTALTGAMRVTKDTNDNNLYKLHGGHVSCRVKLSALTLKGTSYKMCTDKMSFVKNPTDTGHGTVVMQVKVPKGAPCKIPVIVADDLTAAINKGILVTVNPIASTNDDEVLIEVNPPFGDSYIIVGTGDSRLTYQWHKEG
Test: BLI monovalent (IgG on tip)

Binder	Kd
B1	0.658 nM
B2	> 100 nM
B3	22.4 nM
B4	> 100 nM
B5	129 nM
B6	34.4 nM
B7	31.5 nM
B8	5.63 nM
B9	3.45 nM
B10	1.75 nM
B11	3.64 nM
B12	415 nM
B13	7.87 nM
B14	11.4 nM
B15	0.699 nM
B16	> 100 nM
B17	6.69 nM
B18	1.68 nM
B19	177 nM
B20	1.86 nM
B21	1.04 nM
B22	0.997 nM
B23	31.5 nM

Reference: US20240218054A1 (MABLOC, published 2024)
